The data set addresses T1, TFIIB (UniProt P29055 1-345).
T1 sequence: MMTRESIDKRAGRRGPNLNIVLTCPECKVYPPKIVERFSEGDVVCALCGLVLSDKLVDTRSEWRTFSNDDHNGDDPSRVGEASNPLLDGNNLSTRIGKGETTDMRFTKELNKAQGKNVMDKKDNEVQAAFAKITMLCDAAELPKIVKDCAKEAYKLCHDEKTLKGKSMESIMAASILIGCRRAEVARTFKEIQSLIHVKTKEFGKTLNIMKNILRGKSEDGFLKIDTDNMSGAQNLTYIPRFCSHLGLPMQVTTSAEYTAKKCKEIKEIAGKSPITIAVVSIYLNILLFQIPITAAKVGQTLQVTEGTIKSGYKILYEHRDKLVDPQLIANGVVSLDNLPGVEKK
Description: EMSA.

B1: B4-Del3 (structured_RNA)
RNA: GGGAGAAUUCAACUGCCAUCUAGGCAAAGAGCUAAUGUAGGAUGCUGGGGUAGUCCAGCCCUAGAAUAAGCGCUAGUACUACAAGCU
Turning to B1, the binding result was “binds”.

B2: B4-Del5 (structured_RNA)
RNA: GGGAGCUAAUGUAGGAUGCUGGGGUAGUCCAGCCCUAGAAUAAGCGCUAGUACUACAAGCUUCUGGAGCUCGGU
Consider B2, for which the binding result is “binds”.

B3: MiniB4 (structured_RNA)
RNA: GGGAGCUAAUGUAGGAUGCUGGGGUAGUCCAGCCCUAGAAUAAGCGCUAGUACUACAAGCU
In the case of B3, the binding result was “binds”.

The values are drawn from article PMC2853134.
